Laboratory results published in IntAct's records for PubMed 21664272.

Biological target: T1, rasa1_human RASA1 (UniProt P20936)
T1 sequence: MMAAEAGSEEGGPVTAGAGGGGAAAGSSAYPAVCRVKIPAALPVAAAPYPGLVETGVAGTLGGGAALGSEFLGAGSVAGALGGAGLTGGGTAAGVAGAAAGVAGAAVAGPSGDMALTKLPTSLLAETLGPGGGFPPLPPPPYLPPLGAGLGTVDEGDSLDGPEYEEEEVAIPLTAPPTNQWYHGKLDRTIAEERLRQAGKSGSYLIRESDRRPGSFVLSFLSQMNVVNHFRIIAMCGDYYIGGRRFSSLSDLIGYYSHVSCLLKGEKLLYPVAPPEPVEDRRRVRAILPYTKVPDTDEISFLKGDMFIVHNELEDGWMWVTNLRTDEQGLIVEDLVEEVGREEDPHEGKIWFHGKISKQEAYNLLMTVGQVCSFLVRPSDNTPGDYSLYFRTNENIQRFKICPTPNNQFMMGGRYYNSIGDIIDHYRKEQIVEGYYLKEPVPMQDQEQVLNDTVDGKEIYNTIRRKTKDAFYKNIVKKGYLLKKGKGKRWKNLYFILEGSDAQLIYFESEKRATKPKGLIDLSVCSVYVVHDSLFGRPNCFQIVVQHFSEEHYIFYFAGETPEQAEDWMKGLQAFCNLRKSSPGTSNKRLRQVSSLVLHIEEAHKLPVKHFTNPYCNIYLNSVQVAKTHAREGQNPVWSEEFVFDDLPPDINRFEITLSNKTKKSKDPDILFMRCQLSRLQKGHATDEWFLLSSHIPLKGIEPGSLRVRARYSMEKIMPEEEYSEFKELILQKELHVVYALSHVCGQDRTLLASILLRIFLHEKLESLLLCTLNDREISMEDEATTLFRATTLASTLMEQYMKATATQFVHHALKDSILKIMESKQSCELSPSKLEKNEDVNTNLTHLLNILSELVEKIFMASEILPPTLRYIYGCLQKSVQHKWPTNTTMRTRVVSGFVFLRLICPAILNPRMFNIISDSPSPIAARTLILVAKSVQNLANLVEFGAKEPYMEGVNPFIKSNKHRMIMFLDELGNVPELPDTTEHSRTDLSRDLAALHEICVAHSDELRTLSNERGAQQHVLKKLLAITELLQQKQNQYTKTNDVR

| effect of a mutation on the interaction | Substance |
| --- | --- |
| decreasing interaction | SH2/SH3 adapter protein NCK1 (Homo sapiens) (from UniProt P16333) W143K;W229K;R308K |
| decreasing interaction | SH2/SH3 adapter protein NCK1 (Homo sapiens) (from UniProt P16333) W38K;W143K;W229K;R308K |
| decreasing interaction | SH2/SH3 adapter protein NCK1 (Homo sapiens) (from UniProt P16333) W229K |

Second part, the substance before the results:

| Substance | effect of a mutation on the interaction |
| --- | --- |
| SH2/SH3 adapter protein NCK1 (Homo sapiens) (from UniProt P16333) W38K;W229K;R308K | disrupting interaction |
| SH2/SH3 adapter protein NCK1 (Homo sapiens) (from UniProt P16333) W38K;W39K;W143K;W229K | decreasing interaction |
| SH2/SH3 adapter protein NCK1 (Homo sapiens) (from UniProt P16333) W38K | decreasing interaction |
